Earlier results on two substances are cited in paper PMC3597628.

Where two headings read alike, the source gives them in different places.

Data set [1] addresses (Pro)renin receptor (Homo sapiens) (UniProt O75787).
For data set [2] the target is unchanged. The source holds these as a separate data set.

Chain of UniProt O75787 (O75787 17-302): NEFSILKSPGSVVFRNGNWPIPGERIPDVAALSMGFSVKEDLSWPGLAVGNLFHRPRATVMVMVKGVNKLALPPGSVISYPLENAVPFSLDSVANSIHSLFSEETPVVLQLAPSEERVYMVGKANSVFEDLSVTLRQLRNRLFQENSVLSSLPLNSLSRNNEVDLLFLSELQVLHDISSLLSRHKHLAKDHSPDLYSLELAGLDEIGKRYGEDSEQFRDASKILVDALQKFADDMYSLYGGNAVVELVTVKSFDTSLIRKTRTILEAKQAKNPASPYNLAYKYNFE

Take Prorenin (from UniProt P00797): in data set [1], the Kd is 1.2 nM.
Regarding Prorenin (from UniProt P08424), the Kd in data set [2] is 8.3 nM.

What is called Kd is the equilibrium constant for the complex coming apart.
